Measurements from US20080299132A1, “Synergistic compositions for treating HIV-1” (Roche Palo Alto LLC, priority 2006, published 2008).

How the values were obtained:
CCR5 [1] = target: T1, CCR5 (Homo sapiens, UniProt P51681); details: cited from earlier work
CCR5 [2] = target: T1, CCR5; test: Drug interaction (synergy) analysis of two-drug combinations in the CCF assay (Greco and Prichard models); format: cell-based; set-up: host or cells: CEM-NKr-CCR5-Luc
Description: For the in vitro cell-cell fusion studies, the possibility of either enhanced (synergy) or reduced (antagonism) efficacy of CCR5 antibodies in combination with CCR5 antagonists was considered.
The concentration response surface approach described by Greco et al. (Cancer Res. 1990 50:5318-5327) was used to analyze the data. A seven-parameter non-linear model (i) was fit to all experimental data including percent inhibitions calculated from replicates for all concentrations of the two drugs alone and in combination from two 384-well plates. […]
Loewe additivity or no interaction is indicated when the 95% confidence interval of a includes 0. Furthermore, the predicted additivity of the drugs combined was calculated by using all estimated parameters of the Greco model, except a that is fixed at 0. […]
Theoretical additive interactions were calculated from the dose response curves of the individual drugs based on the Bliss Independence equation. […]
The total sum of differences between the observed percent inhibitions and the upper bound of 95% confidence interval of predicted additive percentages is calculated as a statistically significant synergy volume ΣSYN. The total sum of differences between the observed percent inhibitions and the lower bound of 95% confidence interval of predicted additive percentages is calculated as a statistically significant antagonism volume ΣANT. […]

CCR5 [3] = target: T1, CCR5; test: CCR5 mAb binding to CHO-CCR5 cells after pre-incubation with CCR5 antagonists (FACS); details: pre-incubation with 50 nM MVC, AK602 or SCH-D, RT 1 h
Description: FIG. 4—The graph illustrates the effect of CCR5 antagonists on the time course of 5 mAb binding. […] The time course curves for each mAb in the presence of various antagonists were created based on their mean fluorescence intensity (MFI) values.
(§1) The potential for synergism should be maximized when both the antibody and the low molecular weight antagonist (or fusion or attachment inhibitor) can bind independently to the CCR5 receptor.

CCR5 [4] = target: T1, CCR5; test: 3H-MVC binding to CHO-CCR5 cells after pre-incubation with CCR5 mAbs; details: CHO-CCR5 cells preincubated with 30 μg/mL mAb, 26 nM 3H-MVC
Description: The cells (2×10^5/100 μL) were pre-incubated with 30 μg/mL of CCR5 mAbs or PBS at RT for 1 h, then incubated with 26 nM of ^3H-MVC. At the end of various time points, cells were washed and the membrane bound ^3H-MVC was measured as described in Example 2. The maximal counts from the control samples were set as 100% binding and the relative binding for all other samples were calculated and the time course curves were generated based on these relative binding at each time point.
as §1

T1 sequence (P51681 whole entry): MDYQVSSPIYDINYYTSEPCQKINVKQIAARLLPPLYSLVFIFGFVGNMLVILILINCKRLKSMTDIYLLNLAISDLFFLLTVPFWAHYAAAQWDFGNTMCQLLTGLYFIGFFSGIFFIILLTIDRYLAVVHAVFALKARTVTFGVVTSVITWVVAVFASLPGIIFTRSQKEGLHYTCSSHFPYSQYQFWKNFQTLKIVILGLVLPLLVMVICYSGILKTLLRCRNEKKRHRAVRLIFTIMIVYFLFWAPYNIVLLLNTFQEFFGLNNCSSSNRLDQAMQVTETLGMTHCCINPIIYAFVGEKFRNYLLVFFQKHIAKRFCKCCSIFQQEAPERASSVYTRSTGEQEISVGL

Row | drug interaction in words (synergy / antagonism) (CCR5 [2]; combination in cell-cell fusion assay) | mAb binding to CHO-CCR5 cells, effect of CCR5 antagonists, in words (CCR5 [3]) | effect on MVC binding, in words (CCR5 [4]) | higher synergy than ROAb14 when combined with MVC (CCR5 [2]; combination with MVC) | Molecule | effect on the binding of mAb 45523, in words (CCR5 [1])
1 | highest synergy | – | – | – | CCCCN1C(=O)[C@@H]([C@H](O)C2CCCCC2)NC(=O)C12CCN(Cc1ccc(Oc3ccc(C(=O)O)cc3)cc1)CC2 [AK602, reference compound] | completely blocked
2 | – | unaffected | no effect | approximately 60% | RoAb13: mouse anti-human CCR5 monoclonal antibody (Roche), binds the N-terminal end of CCR5 (antibody, V domains shown) VH: EVKLVESGGGLVKPGGSLKLSCAASGFTFSTYAMSWVRQTPEKRLEWVASISTGDNTYYTDSVRGRFTISRDNARNILYLQMSSLRSEDTAMYFCTRGRGDRGDLFGYWGQGTLVTVSS VL: DIVMSQSPSSLAVSVGEKVTMSCKSSQSLLYRGNQMNYLAWYQQKPGQSPKLLIYWASTRESGVPDRFTGSGSGTEFTLTISSVKAEDLTVYYCQQYYTYPRTFGGGTKLEIKR | –
